# Assay: soluble on expression in E. coli; label from the status in PepcDB or PDB records
row,Sequence,soluble on expression in E. coli
1,MTLTASSSSRAVTNSPVVVALDYHNRDDALAFVDKIDPRDCRLKVGKEMFTLFGPQFVRELQQRGFDIFLDLKFHDIPNTAAHAVAAAADLGVWMVNVHASGGARMMTAAREALVPFGKDAPLLIAVTVLTSMEASDLVDLGMTLSPADYAERLAALTQKCGLDGVVCSAQEAVRFKQVFGQEFKLVTPGIRPQGSEAGDQRRIMTPEQALSAGVDYMVIGRPVTQSVDPAQTLKAINASLQRSA,soluble
2,MRKLKYHEKKLIKKVNFLEWKREGNHRENEITYRYHMGSRDDYKKYSGLCRMVQKLTNIMKQMDPADPFRIQMTDMLLEKLYNMGVIPTRKSLTLTERLSVSSFCRRRLSTVLVHLKFAEHHKEAVTYIEQGHVRVGPETITDPAFLVTRNMEDFITWVDSSKIKRKVLEYNDTLDDYDMLA,not soluble
3,MSLKYDWILFDADETLFHFDAFKGMQLMFARKGVEFTEQDFHQYQEVNKPLWVDYQNGDITAAQLKHTRFAGWAEKLNTTTDELNSAFLQAMADICTLLPGAMELMQALQGKARLGIITNGFTELQDVRLAKTGMTDFFDQIVISEEVGIAKPDAGIFAHALERMGNPTKSRVLMVGDNPHSDILGGLNFGIETCWLNVHQHPKPDGITPHYEVTSLHELREILLAEGHHHHHH,soluble
4,MGSDKIHHHHHHMINRKPFFIELELTYKCSQQCIYCHNPPKDLKFYIADKVPKPRSVIEMNELNLSEWISVINQIKRLDEKYEGIMDVVITGGEPLLRSDLEEILSYVTRQKLRHMLLSSGEPISDDRITKLLESGLEKIRINLTSHKYVFNIQSPIMHIKNEVAKKINIAKKFKDFGVKEVGGNIVLTSYYLDFLEEIAELAYKSNLDWIEIHSVIKVGHGYINQKFIVPDPNDERTIQEKLKRLIEIYGENFIQNYVDTDILYSRIPIPTNWGEVGLVIAPNGDIYPSSEATSIPLSKLGNIKNDSLVEIWFNNLLLNKIRSLSFLREPCKSCEVKKLCRGGFRFNAYITKNDLFAPDPSCQIVKDYIGKS,not soluble
5,MGSDKIHHHHHHMTNDPIVFQMSVVKNKPQSYRKDKNKDICPFCDVENLTDIYAKDGDIIWLHNKFPTLRDTLQTVLIESSDHNGDISTYTKKYNRKLLRFSLQCFERMNRDDKYQSVVWYKNYGPHSGGSLIHPHMQIVGFKNVDGYKYIHPNNFEGETLFDKDGVEVNVAEHPVQGYTELNINLLNRNSVDLWADWIQSGAKYLLNIMYDGRCDSYNLFFYPRNDEGICAKFITRFDAPPYFVGYKLSQVNDEMTLTKEARRFKEFYDNDSKIK,not soluble
6,MSLKDFRPLILVAEDDDSNFKLIKAIIGKKCDILWAKNGEEMLNLYREHTQDAHAILMDIKMPIMNGLEATRIIREEGASLPIIMQTAYAFSSDRENAMQAGASEVLVKPITVSALRGCLSSYFPEIKWEGHHHHHH,soluble
7,SSGHKCYPWDLQDRYAQDKSVVNKMQQKYWETKQAFIKATGKKEDEHVVASDADLDAKLELFHSIQRTCLDLSKAIVLYQKRICFLSQEENELGKFLRSQGFQDKTRAGKMMQATGKALCFSSQQRLALRNPLCRFHQEVETFRHRAISDTWLTVNRMEQCRTEYRGALLWMKDVSQELDPDLYKQMEKFRKVQTQVRLAKKNFDKLKMDVCQKVDLLGASRCNLLSHMLATYQTTLLHFWEKTSHTMAAIHESFKGYQPYEFTTLKSLQDPMKKLVEKEEKKKINQQESTDAAVQEPSQLISLEEENQRKESSSFKTEDGKSILSALDKGSTHTACSGPIDELLDMKSEEGACLGPVAGTPEPEGADKDDLLLLSEIFNASSLEEGEFSKEWAAVFGDGQVKEPVPTMALGEPDPKAQTGSGFLPSQLLDQNMKDLQASLQEPAKAASDLTAWFSLFADLDPLSNPDAVGKTDKEHELLNA,soluble
8,MHEYPITKRIIEISQEHANKHNAKEVKQINLVVGDYSGYVASSIELYFGIIAEGTVCENAKLNIKRVKPMLKCNECESLFVRKPFSFECPYCGGQGSPTEIGHEFYIESIEI,soluble
9,GHHHHHHHHHHSSGHIEGRHMPAAPSPAPAGAVAGGPAAGVPAAASGAAEAAMPLPAALPGALAGSHAPRLPLAAGGRLARTRAVREFFDYCLTAQGELTPAALDALVRREIAAQLDGSPAQAEALGVWRRYRAYFDALAQLPGDGAVLGDKLDPAAMQLALDQRAALADRTLGEWAEPFFGDEQRRQRHDLERIRIANDTTLSPEQKAARLAALDAQLTPDERAQQAALHAQQDAVTKIADLQKAGATPDQMRAQIAQTLGPEAAARAAQMQQDDEAWQTRYQAYAAERDRIAAQGLAPQDRDARIAQLRQQTFTAPGEAIRAASLDRGAG,soluble
10,MKIVIAPDSYKESLSALEVATAIEQGFREIWPDADYLKLPLADGGEGTVEAMVEATAGRIVHVEVTGPLGHRVNAFYGLSGDARSAFIEMAAASGLEQVPPAQRDPLKTTSWGTGELIRHALDAGVEHIIIGIGGSATNDGGAGMVQALGARLRDAQGNDIAQGGIGLETLASIDISGLDKRLSACHIEVACDVTNPLTGKEGASAVFGPQKGATPEMIERLDTALTRYAHLIARDLHVDVLDLAGGGAAGGMGAALYAFCGAQLRRGIEIVTDALHLEACLADADLVITGEGRIDSQTIHGKVPIGVANIAKRYNKPVIGIAGSLTADVSVVHEHGLDAVFSVIYTICTLEDALKNASENVRMTARNVAATLKAGQQLR,not soluble
11,MGSDKIHHHHHHMNKLKIGTSGWVYKHWMDIFYPPNLPSDQQLSFYAQHFATVEINFSFYRLPERSVFETWHKQTPSNFLFAVKGSRYLTHMKKLKDPIEPLSRIMERASGLQEKLGPILFQFPHTWHINIERLQPFLELLQTYPKQKFTVEFRHSSWLIPQVYQLLETAGVGLCLPVSPTVPLDICLTAPWTYIRMHSGQWNVGYTDEELSTWVERIRSFLMQEIDVYVYFNNDPDGNAIRDAQRLYCLLGSC,not soluble
12,MLKSKKRLLNPDYLFVTQDESSFYLDSNRSKCWAIKGSKPIKFISGSKTKINIGGFYTENRDFYWYDLGIKKNTDSFLKSLIKLKKDIGRKIFLLLDRATWHKSKKAREFFQNNKYWLQILLFPPATPDRNPTEYCWKTTREELTSIKSFKNIKVLKEELDEFWEKHVFTHKMSHYLKWLEHHHHHH,not soluble
13,MSLAIQPLAYRMRPKALDEIVGQTHLVGKDKIIYRMVKAKQLSSMILYGPPGIGKTSIASAIAGSTKYAFRTLNAVTNNKKDMEVVAAEAKMSGTVILLLDEVHRLDKAKQDFLLPLLESGAIILIGATTSNPYIAINPAIRSRTQIFELKPLTVEDIMITMDRALSDKERGLGNYDVEIDEVAKKHFATASNGDVRSALNALELAVISSEPNEDGVIHITLDVAEECLQKKSLAHDKDGDAHYDVLSAFQKSVRGSDVNAALHYMGRLIEAGDLVSISRRMLVMAYEDIGLASPQAGAHTLAAIQTAEKVGFPEARIPLANAVIELCLSPKSNSAIMAIDAALADIRQGKSGEVPDHLRDGHYSGAEKLGRAIDYKYPHNYDNAWVDQQYLPDRLKNKLYYAPKFTSKFEQTIAGVYQKINENKAKKEGHHHHHH,soluble
14,RVLEDLGWYVAHNIPPQIILELIDMCAREDSPVDKVAVVCDVRSREFRGSLTQVVSELRDKQLDPTVLFLEARDEVLIKRFDNVRRTHPLQGSQTLQVGIERERTVLSPVKEDASVVIDTSDLSVHDLRRAIESSFRTIATRTQHVTIESFGFKHGSPRDADFVVDVRFLPNPFWVPELRPFRGVDKPVSDYVLSQKGAEEFLNNFVDMLKDMLPGYRHEGKNFITIGVGCTGGHHRSVAVSEELAKRIADQTTLDVSVVHRDINRH,not soluble
15,MSEDNFDDEFDGSLPSGPRHPMARRFRGYLPVVVDVETGGFNSATDALLEIAATTVGMDEKGFLFPEHTYFFRIEPFEGANIEPAALEFTGIKLDHPLRMAVQEEAALTEIFRGIRKALKANGCKRAILVGHNSSFDLGFLNAAVARTGIKRNPFHPFSSFDTATLAGLAYGQTVLAKACQAAGMEFDNREAHSARYDTEKTAELFCGIVNRWKEMGGWMDDDD,soluble
16,MGSDKIHHHHHHMSFISKGAKIGENLKIGRNVVIEDGVVIGNNVMIGHNVVIRDGTIVGDNCVIFDGTVLGKLPFKSAISAVTEEKEFPPLKIGNGVTIGANCVIYRGSVLEDFVFVGDLVVIREDVKIGPYTVIGKGVTVENRTTIGRYVKIETNAYITALSTIEDYCFIAPEVTFTNDNFLGRTEERKKFFKGPTLKKGARIGANATILPGVVVGEDALVAAGSVVTRDVPDRKIVMGIPARVVRDVPEEQLLDNQSYYKEESS,not soluble

# Reference: the DeepSol protein solubility set
